# Reference: patent US20090221530A1, “Relaxase Modulators and Methods of Using Same” (priority 2005, published 2009)
# Experiments:
# Experiment in all cases: cleavage_in_vitro
# [1] = test system: TraI D81N D81N (Escherichia coli F plasmid); settings: crossover 10%; in vivo transfer 0.0030%; printed DB1N in table; 6 mM MgCl2, 37 C
# [2] = test system: TraI H159E H159E (Escherichia coli F plasmid); settings: crossover eliminated per text (nd in table); in vivo transfer 0.0010%; 6 mM MgCl2, 37 C
# [3] = test system: TraI H159Q H159Q (Escherichia coli F plasmid); settings: crossover 95%; text calls this no change; 6 mM MgCl2, 37 C
# [4] = test system: TraI K265M K265M (Escherichia coli F plasmid); settings: in vivo transfer 59%; 6 mM MgCl2, 37 C
# [5] = test system: TraI wild-type (full length or N300) (Escherichia coli F plasmid); settings: crossover 100%; 6 mM MgCl2, 150 mM NaCl, pH 7.5, 37 C
substance,measurement,setting,value
oriT 22-mer,activity (% of WT cleavage),[1],53
same,activity (% of WT cleavage),[2],8.5
same,activity (% of WT cleavage),[3],55
same,activity (% of WT cleavage),[4],100
same,activity,[5],100 % cleavage
